Reference: patent US20210277110A1 (Janssen / Centocor, published 2021)
Where two headings read alike, the source gives them in different places.

T1: Extracellular domain of cyno PD1 (cPD1-ECD) (Macaca fascicularis (cynomolgus))
T1 construct: Expressed with a hexahistidine tag or as Fc fusion; also called cynoPD1-ECD; cynoPD-1-ECD
T1 chain: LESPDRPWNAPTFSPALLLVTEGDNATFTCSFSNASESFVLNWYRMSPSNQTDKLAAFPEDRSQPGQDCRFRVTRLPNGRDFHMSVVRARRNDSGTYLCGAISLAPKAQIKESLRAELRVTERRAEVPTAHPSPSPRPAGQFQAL


Assays:
[1] = biological target: T2, Extracellular domain of human PD1 (huPD1-ECD) (human, UniProt Q15116 25-169, biotinylated in the ligand inhibition assay (sites not given)); test: SPR ProteOn, captured mAb, huPD1-ECD analyte
T2 construct: Expressed with a hexahistidine tag or as Fc fusion; also called biotinylated PD-1

[2] = biological target: T2, Extracellular domain of human PD1 …; test: MSD ligand inhibition, competitor coated cynoPDL1-ECD
Experimental: The ligand inhibition assay design was MSD (Mescoscale Discovery) based. A MSD plate was directly coated with ligand (cynoPDL1-ECD, huPDL1-ECD or huPDL2-ECD) and incubated overnight at 4° C. The following day, the coating solution was removed and the plate was blocked. […] Depending on the panel of antibodies to be tested, the antibodies were tested as titrations or at a fixed concentration. […] The mAbs that were positive for inhibition of ligand binding at one concentration were also tested in dose responses for inhibition of various PD-1 ligands.
Select Fabs were cloned as IgG2sigma isotype and characterized for their Jurkat cell binding and cynomolgus PD-L1 ligand inhibition at concentrations 1 μg/ml and 10 μg/ml.

[3] = biological target: T1, Extracellular domain of cyno PD1 …; test: SPR ProteOn, captured mAb, cynoPD1-ECD analyte
Experimental: (§1) Affinity measurements using Surface Plasmon Resonance (SPR) were performed using a ProteOn XPR36 system. A biosensor surface was prepared by coupling a mixture of anti-IgG Fc modified alginate polymer layer surface of a GLC chip using the manufacturer instructions for amine-coupling chemistry. […] The collected data were processed and fitted to a Langmuir 1:1 binding model. The result for each mAb was reported in the format of kₒₙ (On-rate), koff (Off-rate) and KD (equilibrium dissociation constant).
(§2) STDEV were calculated for 3 or more replicates generated for human and cyno proteins. If less than 3 replicates were calculated, RANGE was indicated. RANGE is defined as the low and high values for the replicates tested. For samples in the Table 10 or Table 11 without value indicated in RANGE or STDEV, only one experiment was performed.

[4] = biological target: T3, Full length human PD1 (huPD1) on cells (human, UniProt Q15116 25-288); test: flow cytometry, PHA-stimulated Jurkat cells
T3 construct: on T cells of human donors in the MLR and CMV assays (functional); also called PD-1 on Jurkat cells
Experimental: Jurkat cells were stimulated overnight with 20 ng/ml of PHA, harvested, washed, and checked for viability. The cells were then incubated at 6-10° C. for 45-60 minutes with various concentrations of test antibodies, washed and incubated at 6-10° C. for 45-60 minutes with FITC-labeled goat anti-human IgG. The cells were washed and fixed with BD Cytofix, refrigerated overnight and analyzed on a MACSQuant flow cytometer. The percentage of PD-1 positive cells at each antibody concentration was plotted vs log of the antibody concentration and EC₅₀ values were generated in Prism.

[5] = biological target: T1, Extracellular domain of cyno PD1 …; test: SPR ProteOn, cynoPD1-ECD; RANGE high replicate; RANGE high replicate
Experimental: as §1, §2

[6] = biological target: T1, Extracellular domain of cyno PD1 …; test: SPR ProteOn, cynoPD1-ECD; RANGE low replicate
Experimental: as §1, §2

[7] = biological target: T1, Extracellular domain of cyno PD1 …; test: SPR ProteOn, cynoPD1-ECD; RANGE high replicate
Experimental: as §1, §2

[8] = biological target: T2, Extracellular domain of human PD1 …; test: SPR ProteOn, captured mAb, huPD1-ECD analyte; remark: listed apart in the source
[9] = biological target: T1, Extracellular domain of cyno PD1 …; test: SPR ProteOn, captured mAb, cynoPD1-ECD analyte
Experimental: as §1
STDEV were calculated for 3 or more replicates generated for human and cyno proteins. If less than 3 replicates were calculated, RANGE is indicated. RANGE is defined as the low and high values for the replicates tested. For samples without RANGE or STDEV, only one experiment was performed

T2 sequence (Q15116 25-169 limits assumed): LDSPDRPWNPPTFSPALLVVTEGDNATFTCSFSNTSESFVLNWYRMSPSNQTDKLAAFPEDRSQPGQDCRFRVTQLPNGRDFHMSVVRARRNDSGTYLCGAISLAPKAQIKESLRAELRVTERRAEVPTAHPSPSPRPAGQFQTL
T3 sequence (Q15116 25-288 limits assumed): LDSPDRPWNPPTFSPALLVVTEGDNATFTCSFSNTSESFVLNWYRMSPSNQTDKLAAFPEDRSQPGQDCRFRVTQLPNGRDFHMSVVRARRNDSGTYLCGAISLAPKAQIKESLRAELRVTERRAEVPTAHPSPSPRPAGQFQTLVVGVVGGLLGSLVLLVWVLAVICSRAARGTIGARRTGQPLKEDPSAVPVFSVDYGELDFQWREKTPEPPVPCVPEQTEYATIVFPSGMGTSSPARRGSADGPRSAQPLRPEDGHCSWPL

| Binder | Kd [1] [nM] | koff [1] [s⁻¹] | kon [1] [M⁻¹ s⁻¹] | percentage ligand not blocked at 1 µg/ml [2] [%] | percentage ligand not blocked at 10 µg/ml [2] [%] | Kd [3] [nM] | koff [3] [s⁻¹] | kon [3] [M⁻¹ s⁻¹] | EC50 [4] [µg/mL] | kon [5] [M⁻¹ s⁻¹] | Kd [6] [nM] | koff [6] [s⁻¹] | kon [6] [M⁻¹ s⁻¹] | Kd [7] [nM] | koff [5] [s⁻¹] | also measured |
| --- | --- | --- | --- | --- | --- | --- | --- | --- | --- | --- | --- | --- | --- | --- | --- | --- |
| PD1B114 (antibody, human IgG2, kappa, V domains shown, IgG2sigma/kappa; also called PD1H24/PH9L3) VH: QVQLVQSGAEVKKPGSSVKVSCKASGGTFSSYAISWVRQAPGQGLEWMGGIIPIFGTANYAQKFQGRVTITADESTSTAYMELSSLRSEDTAVYYCARPGLAAAYDTGNLDYWGQGTLVTVSS VL: EIVLTQSPATLSLSPGERATLSCRASQSVSSYLAWYQQKPGQAPRLLIYDASNRATGIPARFSGSGSGTDFTLTISSLEPEDFAVYYCQQRSNWPLTFGQGTKVEIKR | 54.1 | 0.0279 | 517000 | 8 | 13 | 81.5 | 0.0239 | 294000 | 0.47 | – | – | – | – | – | – | – |
| PD1B185 (antibody, human IgG2, kappa, V domains shown, IgG2sigma/kappa; VH 43, VL 55; also called PD1H3/PD1L132) VH: QVQLVQSGAEVKKPGSSVKVSCKASGGTFSSYAISWVRQAPGQGLEWMGGIIPIFGTANYAQKFQGRVTITADESTSTAYMELSSLRSEDTAVYYCARPGLAAAYDTGSLDYWGQGTLVTVSS VL: EIVLTQSPATLSLSPGERATLSCRASQSVRNYLAWYQQKPGQAPRLLIYDASDRATGIPARFSGSGSGTDFTLTISSLEPEDFAVYYCQQRWNWPLTFGQGTKVEIKR | 13.1 | 0.00765 | 585000 | 8 | 5 | 30.5 | 0.00947 | 311000 | 0.09 | 343000 | 27.5 | 0.00938 | 280000 | 34.1 | – | koff [7]: 0.00955 s⁻¹ |
| PD1B192 (antibody, human IgG2, kappa, V domains shown, IgG2sigma/kappa; VH 43, VL 57; also called PD1H3/PD1L133) VH: QVQLVQSGAEVKKPGSSVKVSCKASGGTFSSYAISWVRQAPGQGLEWMGGIIPIFGTANYAQKFQGRVTITADESTSTAYMELSSLRSEDTAVYYCARPGLAAAYDTGSLDYWGQGTLVTVSS VL: EIVLTQSPATLSLSPGERATLSCRASQSVDSYLAWYQQKPGQAPRLLIHDASNRATGIPARFSGSGSGTDFTLTISSLEPEDFAVYYCQQRNYWPLTFGQGTKVEIKR | – | 0.0117 | 541000 | 5 | 5 | 16.4 | 0.00504 | 307000 | 0.06 | 324000 | 15 | 0.00486 | 290000 | 18 | 0.00522 | – |
| PD1B184 (antibody, human IgG2, kappa, V domains shown, IgG2sigma/kappa; VH 43, VL 50; also called PD1H3/PD1L128) VH: QVQLVQSGAEVKKPGSSVKVSCKASGGTFSSYAISWVRQAPGQGLEWMGGIIPIFGTANYAQKFQGRVTITADESTSTAYMELSSLRSEDTAVYYCARPGLAAAYDTGSLDYWGQGTLVTVSS VL: EIVLTQSPATLSLSPGERATLSCRASQSVRNYLAWYQQKPGQAPRLLIHDASNRATGIPARFSGSGSGTDFTLTISSLEPEDFAVYYCQQRNYWPLTFGQGTKVEIKR | 11.4 | 0.00509 | 445000 | 4 | 4 | 11.5 | 0.00274 | 238000 | 0.08 | 268000 | 9.5 | 0.00255 | 208000 | 14.1 | 0.00292 | – |
| PD1B160 (antibody, human IgG2, kappa, V domains shown, IgG2sigma/kappa; VH 42, VL 51; also called PD1H131/PD1L101) VH: QVQLVQSGAEVKKPGSSVKVSCKASGGTFSSYAISWVRQAPGQGLEWMGGIIPIFDTANYAQKFQGRVTITADESTSTAYMELSSLRSEDTAVYYCARPGLAAAYDTGNLDYWGQGTLVTVSS VL: EIVLTQSPATLSLSPGERATLSCRASQSVDSYLAWYQQKPGQAPRLLIKDASDRATGIPARFSGSGSGTDFTLTISSLEPEDFAVYYCQQRGNWPLTFGQGTKVEIKR | 6.87 | 0.00371 | 540000 | 4 | 3 | 5.23 | 0.00166 | 317000 | 0.08 | – | 5.1 | 0.00163 | 316000 | 5.3 | – | koff [7]: 0.00168 s⁻¹; kon [7]: 317000 M⁻¹ s⁻¹ |
| PD1B183 (antibody, human IgG2, kappa, V domains shown, IgG2sigma/kappa; VH 43, VL 54; also called PD1H3/PD1L109) VH: QVQLVQSGAEVKKPGSSVKVSCKASGGTFSSYAISWVRQAPGQGLEWMGGIIPIFGTANYAQKFQGRVTITADESTSTAYMELSSLRSEDTAVYYCARPGLAAAYDTGSLDYWGQGTLVTVSS VL: EIVLTQSPATLSLSPGERATLSCRASQSVSSYLAWYQQKPGQAPRLLIKDASNRATGIPARFSGSGSGTDFTLTISSLEPEDFAVYYCQQRGYWPLTFGQGTKVEIKR | 16 | 0.00844 | 527000 | 5 | 5 | 26.3 | 0.00839 | 320000 | 0.08 | 337000 | 23.9 | 0.00801 | 304000 | 28.8 | 0.00876 | – |
| PD1B177 (antibody, V domains shown, Tested as IgG2sigma; also called PD1H164/PH9L3) VH: QVQLVQSGAEVKKPGSSVKVSCKASGGTFSDYVISWVRQAPGQGLEWMGGIIPIYGTANYAQKFQGRVTITADESTSTAYMELSSLRSEDTAVYYCARGTLDRTGHLDYWGQGTLVTVSS VL: EIVLTQSPATLSLSPGERATLSCRASQSVSSYLAWYQQKPGQAPRLLIYDASNRATGIPARFSGSGSGTDFTLTISSLEPEDFAVYYCQQRSNWPLTFGQGTKVEIK | 5 | 0.00257 | 515000 | 7 | 8 | 6.47 | 0.00189 | 292000 | 0.05 | 304000 | 6.1 | 0.00184 | 280000 | 6.9 | 0.00193 | – |
| PD1B198 (antibody, V domains shown, also called PD1H163/PD1L187) VH: QVQLVQSGAEVKKPGSSVKVSCKASGGTFKSYVIHWVRQAPGQGLEWMGGIIPIFGTANYAQKFQGRVTITADESTSTAYMELSSLRSEDTAVYYCARGYVRATGMLDYWGQGTLVTVSS VL: EIVLTQSPATLSLSPGERATLSCRASQSVSSYLAWYQQKPGQAPRLLIEDASSRATGIPARFSGSGSGTDFTLTISSLEPEDFAVYYCQQRAEWPLTFGQGTKVEIK | – | – | – | – | – | – | – | – | – | – | – | – | – | – | – | Kd [8]: 10.4 nM; koff [8]: 0.00934 s⁻¹; kon [8]: 895000 M⁻¹ s⁻¹; Kd [9]: 11.2 nM; koff [9]: 0.00416 s⁻¹; kon [9]: 372000 M⁻¹ s⁻¹ |
| PD1B187 (antibody, V domains shown, Tested as IgG2sigma; also called PD1H3/PD1L148) VH: QVQLVQSGAEVKKPGSSVKVSCKASGGTFSSYAISWVRQAPGQGLEWMGGIIPIFGTANYAQKFQGRVTITADESTSTAYMELSSLRSEDTAVYYCARPGLAAAYDTGSLDYWGQGTLVTVSS VL: EIVLTQSPATLSLSPGERATLSCRASQSVRSYLAWYQQKPGQAPRLLIYDASNRATGIPARFSGSGSGTDFTLTISSLEPEDFAVYYCQQRNYWPLTFGQGTKVEIK | 5.2 | 0.00278 | 535000 | 7 | 5 | 5.32 | 0.00157 | 294000 | 0.09 | 370000 | 3.5 | 0.00128 | 220000 | 8.4 | 0.00185 | – |
| PD1B194 (antibody, V domains shown, also called PD1H170/PD1L71) VH: QVQLVQSGAEVKKPGSSVKVSCKASGGTFSSYAISWVRQAPGQGLEWMGGIIPIFDTANYAQKFQGRVTITADESTSTAYMELSSLRSEDTAVYYCARPGLAAAYDTGSLDYWGQGTLVTVSS VL: EIVLTQSPATLSLSPGERATLSCRASQSVRSYLAWYQQKPGQAPRLLIYDASYRATGIPARFSGSGSGTDFTLTISSLEPEDFAVYYCQQRDYWPLTFGQGTKVEIK | – | – | – | – | – | – | – | – | – | – | – | – | – | – | – | Kd [8]: 1.07 nM; koff [8]: 0.00096 s⁻¹; kon [8]: 897000 M⁻¹ s⁻¹; Kd [9]: 0.6 nM; koff [9]: 0.000193 s⁻¹; kon [9]: 322000 M⁻¹ s⁻¹ |
| PD1B197 (antibody, V domains shown, also called PD1H163/PD1L185) VH: QVQLVQSGAEVKKPGSSVKVSCKASGGTFKSYVIHWVRQAPGQGLEWMGGIIPIFGTANYAQKFQGRVTITADESTSTAYMELSSLRSEDTAVYYCARGYVRATGMLDYWGQGTLVTVSS VL: EIVLTQSPATLSLSPGERATLSCRASQSVSNYLAWYQQKPGQAPRLLIYDASNRATGIPARFSGSGSGTDFTLTISSLEPEDFAVYYCQQRAYWPLTFGQGTKVEIK | – | – | – | – | – | – | – | – | – | – | – | – | – | – | – | Kd [8]: 4.9 nM; koff [8]: 0.00324 s⁻¹; kon [8]: 658000 M⁻¹ s⁻¹; Kd [9]: 4.6 nM; koff [9]: 0.00126 s⁻¹; kon [9]: 275000 M⁻¹ s⁻¹ |
